Measurements published in publication PMC7158967, “Comparative evaluation of ^68Ga-labelled TATEs: the impact of chelators on imaging” (EJNMMI Research, 2020).
Read-outs that look alike come from different tables or passages of the source.

Tests used:
[1] = cited from earlier work
[2] = tested on: AR42J tumour-bearing mice; experiment: Micro-PET/CT imaging of AR42J tumour-bearing nude mice; details: mouse, in vivo
Protocol: (§1) Tumour cells were subcutaneously injected into the left forelimb of each nude mouse. Biodistribution and imaging studies were conducted when the tumour volume reached at least 1.0 × 1.0 × 1.0 cm^3.
(§2) Six (3 female and 3 male) mice with AR42J tumour xenografts (15–20 g) were used in the imaging study. All tumour-bearing mice were anaesthetized by intranasal inhalation of isoflurane. […] Images were acquired and reconstructed using micro-PET/CT at 30 min and 2 h after intravenous injection.

[3] = as above; details: both sexes, nude, mouse, in vivo, iv, 2.96 MBq, total radioactivity
Protocol: as §1, §2

SSTR2 = tested on: SSTR2; design: method as in PMID 28864614; details: read-out: half inhibitory concentration (IC50) on SSTR2; cited from earlier work
[4] = Lipid-water partition (log Po/w), octanol water system; format: physicochemical
Protocol: The lipid-water partition (logP) of ^68Ga-labelled complexes was determined in the octanol water system by following the procedure mentioned below. In brief, 490 μL of ultrapure water was added to each of three centrifuge tubes containing 0.5 mL of saturated n-octanol and then combined with 10 μL (1.85 MBq/0.05 mCi) of freshly prepared radiolabelled complexes by ultrasonication (3 min). The centrifuge tube was allowed to stand for approximately 1 min for the liquid to become stratified. The upper and lower liquids were defined as groups A (A1, A2, A3) and B (B1, B2, B3), accounting for the organic and aqueous phases, respectively. Then, 0.1 mL was retrieved from each of the 6 sections. The radioactivity (CPM) of both phases was determined using a gamma counter, and the lipid-water partition coefficient was calculated as follows: logP = log (A-background)/(B-background). The average of three tubes was recorded as the logP.

[5] = format: in vitro ADME; details: human
Protocol: In vitro serum binding studies for both ^68Ga-labelled NOTA-TATE and DOTA-TATE were carried out by following a generalized procedure summarized below. One millilitre of fresh anticoagulated (heparinized) human plasma was prepared. Freshly labelled compound (3.7 MBq, 0.1 mCi) was added to three centrifuge tubes, each containing 0.1 mL of human plasma. After incubation at 37 °C for 2 h, 1 mL of ice-cold methanol was added to each tube. The mixtures were separated by centrifugation (5 min, 3000 rpm) to collect the supernatant, which was repeated three times. A gamma counter was then used to measure the radioactivity of the supernatant (A) and the precipitate (B) in counts per minute (CPM); the plasma-protein binding rate was calculated as PPB = B/(A + B)100%, and the average of three tubes was recorded.

[6] = Biodistribution in AR42J tumour-bearing nude mice; details: mouse, in vivo
Protocol: as §1

healthy volunteers = experiment: clinical; details: human, in vivo
Protocol: (§3) Twenty-two healthy volunteers gave informed consent and agreed to participate in the study. […] Each patient was injected with an average activity of 1.9 MBq/kg. The timing of image acquisition ranged from 30 to 45 min after injection (3 min/bed position). The PET image was attenuated and then reconstructed using the iterative reconstruction algorithm implemented.

clinical = details: human, in vivo, total radioactivity
Protocol: as §3

## O=C(O)CN1CCN(CC(=O)O)CCN(CC(=O)O)CC1 [NOTA, 1,4,7-triazacyclononane-1,4,7-triacetic acid]
[1]; NOTA ^68Ga complex, octahedral
  log stability constant of the ^68Ga complex: 30.98

## O=C(O)CN1CCN(CC(=O)O)CCN(CC(=O)O)CCN(CC(=O)O)CC1 [DOTA, 1,4,7,10-tetraazacyclododecane-1,4,7,10-tetraacetic acid]
[1]; DOTA ^68Ga complex, pseudo-octahedral geometry
  log stability constant of the ^68Ga complex: 21.33

## C[C@@H](O)[C@H](NC(=O)[C@@H]1CSSC[C@H](NC(=O)[C@@H](Cc2ccccc2)NC(=O)CN2CCN(CC(=O)O)CCN(CC(=O)O)CCN(CC(=O)O)CC2)C(=O)N[C@@H](Cc2ccc(O)cc2)C(=O)N[C@H](Cc2c[nH]c3ccccc23)C(=O)N[C@@H](CCCCN)C(=O)N[C@@H]([C@@H](C)O)C(=O)N1)C(=O)O [^68Ga-DOTA-TATE, metal not drawn]
[2]
  gallbladder radioactivity on micro-PET/CT: minimal gallbladder activity
[3]
  SUV at 0.5 h: 2.87 SUV
  SUV at 2 h: 1.83 SUV
SSTR2
  IC50: […]
[4]
  log Po/w (partition coefficient): − 2.72 ± 0.16
[5]
  fraction unbound: 0.694
[6]; %ID/g Blood
  tissue uptake at 0.25 h: 3.03 ± 1.96 %ID/g
[6]; %ID/g Gallbladder
  tissue uptake at 0.25 h: 1.47 ± 0.62 %ID/g
[6]; %ID/g Intestines
  tissue uptake at 0.25 h: 1.56 ± 1.47 %ID/g
  tissue uptake at 0.5 h: 1.58 ± 1.77 %ID/g
  tissue uptake at 2 h: 0.23 ± 0.15 %ID/g
[6]; %ID/g Kidney
  tissue uptake at 0.25 h: 10.3 ± 8.89 %ID/g
  tissue uptake at 0.5 h: 8.12 ± 2.71 %ID/g
  tissue uptake at 2 h: 1.49 ± 0.57 %ID/g
[6]; %ID/g Liver
  tissue uptake at 2 h: 0.08 ± 0.07 %ID/g
[6]; %ID/g Lungs
  tissue uptake at 0.5 h: 2.86 ± 1.47 %ID/g
  tissue uptake at 2 h: 0.98 ± 0.22 %ID/g
[6]; %ID/g Muscle
  tissue uptake at 0.25 h: 1.18 ± 1.26 %ID/g
  tissue uptake at 2 h: 0.04 ± 0.01 %ID/g
[6]; %ID/g Skeleton
  tissue uptake at 0.25 h: 1.94 ± 0.81 %ID/g
  tissue uptake at 0.5 h: 1.1 ± 0.63 %ID/g
  tissue uptake at 1 h: 0.8 ± 0.73 %ID/g
  tissue uptake at 2 h: 0.17 ± 0.06 %ID/g
[6]; %ID/g Spleen
  tissue uptake at 0.25 h: 3.84 ± 4.03 %ID/g
  tissue uptake at 0.5 h: 1.48 ± 0.84 %ID/g
  tissue uptake at 1 h: 1.92 ± 1.75 %ID/g
  tissue uptake at 2 h: 0.21 ± 0.19 %ID/g
[6]; %ID/g Stomach
  tissue uptake at 0.25 h: 4.24 ± 2.66 %ID/g
  tissue uptake at 0.5 h: 0.98 ± 0.49 %ID/g
  tissue uptake at 1 h: 4.26 ± 2.58 %ID/g
[6]; %ID/g Tumour
  tissue uptake at 0.5 h: 3.62 ± 1.94 %ID/g
  tissue uptake at 1 h: 3.14 ± 2.07 %ID/g
  tissue uptake at 2 h: 2.3 ± 1.34 %ID/g
Healthy volunteers
  SUVmax Blood pool, range: 0.6~1.4
  SUVmax Kidneys, range: 11.2~17.8
  SUVmax Large bowel, range: 1.6~3.7
  SUVmax Palatine tonsil, range: 1.2~4.1
  SUVmax Parotid gland, range: 1.9~5.4
  SUVmax Pituitary gland, range: 2.4~7.9
  SUVmax Small bowel, range: 2.2~4.9
  SUVmax Stomach, range: 3.1~8.3
  SUVmax Submandibular, range: 1.7~5.7
  SUVmax Thymus, range: 0.7~1.5
  SUVmax kidneys, single value: 17.8
  SUVmax pituitary gland, single value: 7.9
  SUVmax stomach wall, single value: 8.3
  radioactivity in the gallbladder: No radioactivity was seen
  uptake in the brain: not taken up in the brain
clinical; both sexes, 1.9 MBq/kg, SUVmax Adrenals, average
  SUV: 15.2 SUV
clinical; both sexes, 1.9 MBq/kg, SUVmax Blood pool, average
  SUV: 0.9 SUV
clinical; both sexes, 1.9 MBq/kg, SUVmax Bone marrow, average
  SUV: 0.8 SUV
clinical; both sexes, 1.9 MBq/kg, SUVmax Kidneys, average
  SUV: 14.5 SUV
clinical; both sexes, 1.9 MBq/kg, SUVmax Large bowel, average
  SUV: 2.2 SUV
clinical; both sexes, 1.9 MBq/kg, SUVmax Liver, average
  SUV: 10.1 SUV
clinical; both sexes, 1.9 MBq/kg, SUVmax Lungs, average
  SUV: 0.8 SUV
clinical; both sexes, 1.9 MBq/kg, SUVmax Lymph nodes, average
  SUV: 1.1 SUV
clinical; both sexes, 1.9 MBq/kg, SUVmax Palatine tonsil, average
  SUV: […]
clinical; both sexes, 1.9 MBq/kg, SUVmax Pancreas, average
  SUV: 6.2 SUV
clinical; both sexes, 1.9 MBq/kg, SUVmax Small bowel, average
  SUV: […]
clinical; both sexes, 1.9 MBq/kg, SUVmax Spleen, average
  SUV: 26.9 SUV
clinical; both sexes, 1.9 MBq/kg, SUVmax Stomach, average
  SUV: […]
clinical; both sexes, 1.9 MBq/kg, SUVmax Submandibular, average
  SUV: […]
clinical; both sexes, 1.9 MBq/kg, SUVmax Thymus, average
  SUV: 1.2 SUV
clinical; both sexes, iv, 1.9 MBq/kg, SUVmax Breast, average
  SUV: 0.6 SUV
clinical; iv, 2.52 mCi, SUVmax kidney, single volunteer
  SUV: 13.9 SUV
clinical; iv, 2.52 mCi, SUVmax liver, single volunteer
  SUV: 9.4 SUV
clinical; iv, 2.52 mCi, SUVmax pituitary, single volunteer
  SUV: […]
clinical; iv, 2.52 mCi, SUVmax spleen, single volunteer
  SUV: […]
clinical; iv, 2.8 mCi, SUVmax liver, single volunteer
  SUV: 7.8 SUV
clinical; iv, 2.8 mCi, SUVmax spleen, single volunteer
  SUV: 16.3 SUV
